# Experimental data as given in PMC2649980 (Proteins, 2009).
# B1: D355R TRβ LBD (human thyroid hormone receptor beta ligand binding domain, a.a. 209-461, D355R), TRIAC-bound (domain or fragment, UniProt P10828 209-461, looked up)
# chain: GHKPEPTDEEWELIKTVTEAHVATNAQGSHWKQKRKFLPEDIGQAPIVNAPEGGKVDLEAFSHFTKIITPAITRVVDFAKKLPMFCELPCEDQIILLKGCCMEIMSLRAAVRYDPESETLTLNGEMAVTRGQLKNGGLGVVSDAIFRLGMSLSSFNLDDTEVALLQAVLLMSSDRPGLACVERIEKYQDSFLLAFEHYINYRKHHVTHFWPKLLMKVTDLRMIGACHASRFLHMKVECPTELFPPLFLEVFED
# Target: the molecule itself
# Experiment: SEC
protein,measurement,value
B1,stoichiometry N,2
